Reference: paper PMC2171497

Target: 2′,3′-cyclic nucleotide 3′-phosphodiesterase (CNP), endogenous, rat (rat (endogenous in cultured rat OLs and rat brain)) (UniProt P13233)
Test: co-IP

UniProt P13233, sequence (P13233 whole entry): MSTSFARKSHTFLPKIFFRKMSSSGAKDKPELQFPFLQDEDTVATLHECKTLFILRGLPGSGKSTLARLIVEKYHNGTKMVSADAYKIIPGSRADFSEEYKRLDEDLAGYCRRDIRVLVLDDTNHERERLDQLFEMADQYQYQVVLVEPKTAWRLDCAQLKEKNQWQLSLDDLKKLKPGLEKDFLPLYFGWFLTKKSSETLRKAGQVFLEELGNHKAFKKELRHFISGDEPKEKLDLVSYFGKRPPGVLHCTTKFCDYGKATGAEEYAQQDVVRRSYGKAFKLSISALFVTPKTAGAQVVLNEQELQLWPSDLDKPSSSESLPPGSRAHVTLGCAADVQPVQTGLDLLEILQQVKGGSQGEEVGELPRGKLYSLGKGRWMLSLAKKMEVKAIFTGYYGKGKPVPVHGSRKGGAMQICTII

stoichiometry N: 1
Substance: tubulin (α- and β-tubulin), endogenous, rat (from UniProt P68370 1-451; Q3KRE8 1-445) (complex)
